US20220332846A1 (Innovent, published 2022)

Molecular target: T1, PCSK-9 in human serum samples (human, UniProt Q8NBP7 31-692, limits assumed)
T1 construct: Endogenous PCSK-9 in clinical serum of human subjects, detected with a goat anti-human PCSK-9 polyclonal antibody; also called proprotein convertase subtilisin/kexin type 9; serum free PCSK-9
Experiment: ELISA, ADI-10087 coated on a microplate, serum PCSK-9 captured, detected with goat anti-human PCSK-9 polyclonal antibody
Procedure: A corresponding TMB substrate of HRP enzyme was then added, the color intensity of the TMB substrate was proportional to the content of PCSK-9, and the concentration of PCSK-9 in clinical serum could be detected by OD values at 450 nm or 620 nm using a microplate reader.

T1 sequence (Q8NBP7 31-692 limits assumed): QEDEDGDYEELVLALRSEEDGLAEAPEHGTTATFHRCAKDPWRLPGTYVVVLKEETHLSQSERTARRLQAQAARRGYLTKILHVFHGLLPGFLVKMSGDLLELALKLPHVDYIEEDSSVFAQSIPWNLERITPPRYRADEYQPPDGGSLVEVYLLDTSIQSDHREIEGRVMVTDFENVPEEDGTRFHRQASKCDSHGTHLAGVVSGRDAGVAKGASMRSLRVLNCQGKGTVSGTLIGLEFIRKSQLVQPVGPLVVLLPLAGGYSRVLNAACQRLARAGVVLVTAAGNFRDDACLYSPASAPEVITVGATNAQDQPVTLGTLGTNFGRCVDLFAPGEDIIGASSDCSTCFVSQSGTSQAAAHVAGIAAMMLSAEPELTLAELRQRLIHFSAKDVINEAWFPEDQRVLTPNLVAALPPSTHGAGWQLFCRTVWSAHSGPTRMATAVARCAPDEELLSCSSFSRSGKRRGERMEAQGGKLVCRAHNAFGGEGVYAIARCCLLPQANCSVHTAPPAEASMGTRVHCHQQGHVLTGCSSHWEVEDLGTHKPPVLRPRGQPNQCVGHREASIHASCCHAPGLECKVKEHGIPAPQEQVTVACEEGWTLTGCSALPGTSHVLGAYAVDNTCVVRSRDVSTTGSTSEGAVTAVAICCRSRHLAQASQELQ

B1: ADI-10087 (antibody, V domains shown)
VH: QLQLQESGPGLVKPSETLSLTCTVSGGSISSASYYWSWIRQPPGKGLEWIGSINYRGSTYYNPSLKSRVTISVDTSKNQFSLKLSSVTAADTAVYYCARENSGVVPAAGPNWFGPWGQGTLVTVSS
VL: EIVLTQSPATLSLSPGERATLSCRASQSVSSYLAWYQQKPGQAPRLLIYDASNRATGIPARFSGSGSGTDFTLTISSLEPEDFAVYYCQQRRNWFTFGGGTKVEIKR
modifications: In Example 10 the antibody carries a ruthenium label, and in Example 9 biotin and ruthenium labels. The labelling sites are not stated and the letters do not carry them.
notes: The antibody was obtained from PCT/CN2017/118050; also called anti-PCSK9 antibody; test drug
binding result: binds
